Experiments:
[1] = test system: HeLa Kyoto; experiment: melting temperature (median over replicates), in situ; higher = more thermally stable
[2] = test system: HeLa Kyoto; experiment: thermal stability score vs G1/S (z-score of summed log2 fold changes over temperatures); higher = more thermally stable than in G1/S
[3] = test system: HeLa Kyoto; experiment: solubility change mitosis vs G1/S (difference of NP-40 vs SDS log2 ratios) (log2 ratio difference); higher = more soluble in mitosis
[4] = test system: HeLa Kyoto; experiment: solubility in G1/S (NP-40 vs SDS abundance) (log2 ratio); higher = more soluble; conditions: cell cycle stage: G1/S
[5] = cell cycle stage: early G1 (4.5 h after nocodazole release)
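Throughout, for melting temperature (median over replicates), in situ: HeLa Kyoto cells synchronized by double thymidine or nocodazole block, proteins quantified by TMT10plex mass spectrometry, three independent biological replicates.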
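Throughout, for solubility change mitosis vs G1/S (difference of NP-40 vs SDS log2 ratios): synchronized HeLa Kyoto cells (double thymidine block for G1/S, nocodazole release for mitosis), protein amounts in NP-40 versus SDS lysates quantified by mass spectrometry, three biological replicates.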
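Throughout, for solubility in G1/S (NP-40 vs SDS abundance): HeLa Kyoto cells arrested at G1/S by double thymidine block, proteins quantified by TMT10plex mass spectrometry in mild NP-40 versus SDS extracts, three biological replicates.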
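Throughout, for thermal stability score vs G1/S (z-score of summed log2 fold changes over temperatures): synchronized HeLa Kyoto cells, proteins quantified by TMT10plex mass spectrometry, three biological replicates, mitosis taken 0.5 h after nocodazole release, G1/S directly after double thymidine block.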

Row | Sequence | melting temperature ([1]; cell cycle stage: G1/S) [°C] | melting temperature ([1]; cell cycle stage: mitosis) [°C] | thermal stability score [2, 5] | thermal stability score ([2]; cell cycle stage: mitosis) | solubility change mitosis (log2) [3] | solubility in G1/S (log2) [4]
1 | MDVRRLKVNELREELQRRGLDTRGLKAELAERLQAALEAEEPDDERELDADDEPGRPGHINEEVETEGGSELEGTAQPPPPGLQPHAEPGGYSGPDGHYAMDNITRQNQFYDTQVIKQENESGYERRPLEMEQQQAYRPEMKTEMKQGAPTSFLPPEASQLKPDRQQFQSRKRPYEENRGRGYFEHREDRRGRSPQPPAEEDEDDFDDTLVAIDTYNCDLHFKVARDRSSGYPLTIEGFAYLWSGARASYGVRRGRVCFEMKINEEISVKHLPSTEPDPHVVRIGWSLDSCSTQLGEEPFSYGYGGTGKKSTNSRFENYGDKFAENDVIGCFADFECGNDVELSFTKNGKWMGIAFRIQKEALGGQALYPHVLVKNCAVEFNFGQRAEPYCSVLPGFTFIQHLPLSERIRGTVGPKSKAECEILMMVGLPAAGKTTWAIKHAASNPSKKYNILGTNAIMDKMRVMGLRRQRNYAGRWDVLIQQATQCLNRLIQIAARKKRNYILDQTNVYGSAQRRKMRPFEGFQRKAIVICPTDEDLKDRTIKRTDEEGKDVPDHAVLEMKANFTLPDVGDFLDEVLFIELQREEADKLVRQYNEEGRKAGPPPEKRFDNRGGGGFRGRGGGGGFQRYENRGPPGGNRGGFQNRGGGSGGGGNYRGGFNRSGGGGYSQNRWGNNNRDNNNSNNRGSYNRAPQQQPPPQQPPPPQPPPQQPPPPPSYSPARNPPGASTYNKNSNIPGSSANTSTPTVSSYSPPQPSYSQPPYNQGGYSQGYTAPPPPPPPPPAYNYGSYGGYNPAPYTPPPPPTAQTYPQPSYNQYQQYAQQWNQYYQNQGQWPPYYGNYDYGSYSGNTQGGTSTQ [HNRNPUL1] | 46.9 | 49.2 | 3.72 | 6.44 | -0.0379 | -0.152
2 | MDWGTELWDQFEVLERHTQWGLDLLDRYVKFVKERTEVEQAYAKQLRSLVKKYLPKRPAKDDPESKFSQQQSFVQILQEVNDFAGQRELVAENLSVRVCLELTKYSQEMKQERKMHFQEGRRAQQQLENGFKQLENSKRKFERDCREAEKAAQTAERLDQDINATKADVEKAKQQAHLRSHMAEESKNEYAAQLQRFNRDQAHFYFSQMPQIFDKLQDMDERRATRLGAGYGLLSEAELEVVPIIAKCLEGMKVAANAVDPKNDSHVLIELHKSGFARPGDVEFEDFSQPMNRAPSDSSLGTPSDGRPELRGPGRSRTKRWPFGKKNKPRPPPLSPLGGPVPSALPNGPPSPRSGRDPLAILSEISKSVKPRLASFRSLRGSRGTVVTEDFSHLPPEQQRKRLQQQLEERSRELQKEVDQREALKKMKDVYEKTPQMGDPASLEPQIAETLSNIERLKLEVQKYEAWLAEAESRVLSNRGDSLSRHARPPDPPASAPPDSSSNSASQDTKESSEEPPSEESQDTPIYTEFDEDFEEEPTSPIGHCVAIYHFEGSSEGTISMAEGEDLSLMEEDKGDGWTRVRRKEGGEGYVPTSYLRVTLN [TRIP10] | 50.7 | 49.9 | -0.196 | -0.283 | -0.00359 | 0.397
3 | MEAADASRSNGSSPEARDARSPSGPSGSLENGTKADGKDAKTTNGHGGEAAEGKSLGSALKPGEGRSALFAGNEWRRPIIQFVESGDDKNSNYFSMDSMEGKRSPYAGLQLGAAKKPPVTFAEKGELRKSIFSESRKPTVSIMEPGETRRNSYPRADTGLFSRSKSGSEEVLCDSCIGNKQKAVKSCLVCQASFCELHLKPHLEGAAFRDHQLLEPIRDFEARKCPVHGKTMELFCQTDQTCICYLCMFQEHKNHSTVTVEEAKAEKETELSLQKEQLQLKIIEIEDEAEKWQKEKDRIKSFTTNEKAILEQNFRDLVRDLEKQKEEVRAALEQREQDAVDQVKVIMDALDERAKVLHEDKQTREQLHSISDSVLFLQEFGALMSNYSLPPPLPTYHVLLEGEGLGQSLGNFKDDLLNVCMRHVEKMCKADLSRNFIERNHMENGGDHRYVNNYTNSFGGEWSAPDTMKRYSMYLTPKGGVRTSYQPSSPGRFTKETTQKNFNNLYGTKGNYTSRVWEYSSSIQNSDNDLPVVQGSSSFSLKGYPSLMRSQSPKAQPQTWKSGKQTMLSHYRPFYVNKGNGIGSNEAP [TRIM29] | 50.6 | 50.9 | -0.827 | -1.46 | 0.303 | -0.308
4 | MEAARPPPTAGKFVVVGGGIAGVTCAEQLATHFPSEDILLVTASPVIKAVTNFKQISKILEEFDVEEQSSTMLGKRFPNIKVIESGVKQLKSEEHCIVTEDGNQHVYKKLCLCAGAKPKLICEGNPYVLGIRDTDSAQEFQKQLTKAKRIMIIGNGGIALELVYEIEGCEVIWAIKDKAIGNTFFDAGAAEFLTSKLIAEKSEAKIAHKRTRYTTEGRKKEARSKSKADNVGSALGPDWHEGLNLKGTKEFSHKIHLETMCEVKKIYLQDEFRILKKKSFTFPRDHKSVTADTEMWPVYVELTNEKIYGCDFIVSATGVTPNVEPFLHGNSFDLGEDGGLKVDDHMHTSLPDIYAAGDICTTSWQLSPVWQQMRLWTQARQMGWYAAKCMAAASSGDSIDMDFSFELFAHVTKFFNYKVVLLGKYNAQGLGSDHELMLRCTKGREYIKVVMQNGRMMGAVLIGETDLEETFENLILNQMNLSSYGEDLLDPNIDIEDYFD [PYROXD1] | 49.6 | 49.9 | -0.128 | -0.037 | -0.158 | -0.102
5 | MEADKDDTQQILKEHSPDEFIKDEQNKGLIDEITKKNIQLKKEIQKLETELQEATKEFQIKEDIPETKMKFLSVETPENDSQLSNISCSFQVSSKVPYEIQKGQALITFEKEEVAQNVVSMSKHHVQIKDVNLEVTAKPVPLNSGVRFQVYVEVSKMKINVTEIPDTLREDQMRDKLELSFSKSRNGGGEVDRVDYDRQSGSAVITFVEIGVADKILKKKEYPLYINQTCHRVTVSPYTEIHLKKYQIFSGTSKRTVLLTGMEGIQMDEEIVEDLINIHFQRAKNGGGEVDVVKCSLGQPHIAYFEE [NMI] | 55.4 | 55.7 | -1.52 | -4.03 | -0.0719 | 0.127
6 | MEALILEPSLYTVKAILILDNDGDRLFAKYYDDTYPSVKEQKAFEKNIFNKTHRTDSEIALLEGLTVVYKSSIDLYFYVIGSSYENELMLMAVLNCLFDSLSQMLRKNVEKRALLENMEGLFLAVDEIVDGGVILESDPQQVVHRVALRGEDVPLTEQTVSQVLQSAKEQIKWSLLR [COPZ1] | 52.4 | 53.1 | -1.54 | -1.52 | 0.197 | 0.235
7 | MEALPLLAATTPDHGRHRRLLLLPLLLFLLPAGAVQGWETEERPRTREEECHFYAGGQVYPGEASRVSVADHSLHLSKAKISKPAPYWEGTAVIDGEFKELKLTDYRGKYLVFFFYPLDFTFVCPTEIIAFGDRLEEFRSINTEVVACSVDSQFTHLAWINTPRRQGGLGPIRIPLLSDLTHQISKDYGVYLEDSGHTLRGLFIIDDKGILRQITLNDLPVGRSVDETLRLVQAFQYTDKHGEVCPAGWKPGSETIIPDPAGKLKYFDKLN [PRDX4] | 58.4 | 62.8 | -1.92 | -4.08 | -0.0673 | -0.00958
8 | MEALSRAGQEMSLAALKQHDPYITSIADLTGQVALYTFCPKANQWEKTDIEGTLFVYRRSASPYHGFTIVNRLNMHNLVEPVNKDLEFQLHEPFLLYRNASLSIYSIWFYDKNDCHRIAKLMADVVEEETRRSQQAARDKQSPSQANGCSDHRPIDILEMLSRAKDEYERNQMGDSNISSPGLQPSTQLSNLGSTETLEEMPSGSQDKSAPSGHKHLTVEELFGTSLPKEQPAVVGLDSEEMERLPGDASQKEPNSFLPFPFEQLGGAPQSETLGVPSAAHHSVQPEITTPVLITPASITQSNEKHAPTYTIPLSPVLSPTLPAEAPTAQVPPSLPRNSTMMQAVKTTPRQRSPLLNQPVPELSHASLIANQSPFRAPLNVTNTAGTSLPSVDLLQKLRLTPQHDQIQTQPLGKGAMVASFSPAAGQLATPESFIEPPSKTAAARVAASASLSNMVLAPLQSMQQNQDPEVFVQPKVLSSAIPVAGAPLVTATTTAVSSVLLAPSVFQQTVTRSSDLERKASSPSPLTIGTPESQRKPSIILSKSQLQDTLIHLIKNDSSFLSTLHEVYLQVLTKNKDNHNL [DCP1A] | 50.5 | 50.9 | -0.228 | 1.27 | -0.0577 | 0.265
9 | MEANWTAFLFQAHEASHHQQQAAQNSLLPLLSSAVEPPDQKPLLPIPITQKPQGAPETLKDAIGIKKEKPKTSFVCTYCSKAFRDSYHLRRHESCHTGIKLVSRPKKTPTTVVPLISTIAGDSSRTSLVSTIAGILSTVTTSSSGTNPSSSASTTAMPVTQSVKKPSKPVKKNHACEMCGKAFRDVYHLNRHKLSHSDEKPFECPICNQRFKRKDRMTYHVRSHEGGITKPYTCSVCGKGFSRPDHLSCHVKHVHSTERPFKCQTCTAAFATKDRLRTHMVRHEGKVSCNICGKLLSAAYITSHLKTHGQSQSINCNTCKQGISKTCMSEETSNQKQQQQQQQQQQQQQQQQQQHVTSWPGKQVETLRLWEEAVKARKKEAANLCQTSTAATTPVTLTTPFSITSSVSSGTMSNPVTVAAAMSMRSPVNVSSAVNITSPMNIGHPVTITSPLSMTSPLTLTTPVNLPTPVTAPVNIAHPVTITSPMNLPTPMTLAAPLNIAMRPVESMPFLPQALPTSPPW [VEZF1] | 55.4 |  | 0.665 | 0.5 | 0.0342 | 0.142
10 | MEAQAQGLLETEPLQGTDEDAVASADFSSMLSEEEKEELKAELVQLEDEITTLRQVLSAKERHLVEIKQKLGMNLMNELKQNFSKSWHDMQTTTAYKKTHETLSHAGQKATAAFSNVGTAISKKFGDMSYSIRHSISMPAMRNSPTFKSFEERVETTVTSLKTKVGGTNPNGGSFEEVLSSTAHASAQSLAGGSRRTKEEELQC [TPD52L1] | 54.4 | 53.6 | -3.64 | -3.95 | 0.111 | 0.458
11 | MEASVILPILKKKLAFLSGGKDRRSGLILTIPLCLEQTNMDELSVTLDYLLSIPSEKCKARGFTVIVDGRKSQWNVVKTVVVMLQNVVPAEVSLVCVVKPDEFWDKKVTHFCFWKEKDRLGFEVILVSANKLTRYIEPCQLTEDFGGSLTYDHMDWLNKRLVFEKFTKESTSLLDELALINNGSDKGNQQEKERSVDLNFLPSVDPETVLQTGHELLSELQQRRFNGSDGGVSWSPMDDELLAQPQVMKLLDSLREQYTRYQEVCRQRSKRTQLEEIQQKVMQVVNWLEGPGSEQLRAQWGIGDSIRASQALQQKHEEIESQHSEWFAVYVELNQQIAALLNAGDEEDLVELKSLQQQLSDVCYRQASQLEFRQNLLQAALEFHGVAQDLSQQLDGLLGMLCVDVAPADGASIQQTLKLLEEKLKSVDVGLQGLREKGQGLLDQISNQASWAYGKDVTIENKENVDHIQGVMEDMQLRKQRCEDMVDVRRLKMLQMVQLFKCEEDAAQAVEWLSELLDALLKTHIRLGDDAQETKVLLEKHRKFVDVAQSTYDYGRQLLQATVVLCQSLRCTSRSSGDTLPRLNRVWKQFTIASEERVHRLEMAIAFHSNAEKILQDCPEEPEAINDEEQFDEIEAVGKSLLDRLTVPVVYPDGTEQYFGSPSDMASTAENIRDRMKLVNLKRQQLRHPEMVTTES [SESTD1] |  | 49.5 | -0.259 | 0.238 | -0.126 | 0.132
12 | MEATGTDEVDKLKTKFISAWNNMKYSWVLKTKTYFSRNSPVLLLGKCYHFKYEDEDKTLPAESGCTIEDHVIAGNVEEFRKDFISRIWLTYREEFPQIEGSALTTDCGWGCTLRTGQMLLAQGLILHFLGRAWTWPDALNIENSDSESWTSHTVKKFTASFEASLSGEREFKTPTISLKETIGKYSDDHEMRNEVYHRKIISWFGDSPLALFGLHQLIEYGKKSGKKAGDWYGPAVVAHILRKAVEEARHPDLQGITIYVAQDCTVYNSDVIDKQSASMTSDNADDKAVIILVPVRLGGERTNTDYLEFVKGILSLEYCVGIIGGKPKQSYYFAGFQDDSLIYMDPHYCQSFVDVSIKDFPLETFHCPSPKKMSFRKMDPSCTIGFYCRNVQDFKRASEEITKMLKFSSKEKYPLFTFVNGHSRDYDFTSTTTNEEDLFSEDEKKQLKRFSTEEFVLL [ATG4C] | 50.6 | 50.3 | -0.279 | 0.138 | 0.268 | -1.32

Source: the supplement of paper PMC5998384
